Where no end group is shown, it is not given here.
Key:
[1] = Adsorption onto FDKP microparticles at pH 5.0 with increasing salt (sodium chloride); format: physicochemical; conditions: pH 5.0, 5 mg/mL FDKP microparticles, sodium chloride (FIGS. 8A-8D)
Procedure: Each sample contained a different quantity of salt (sodium chloride), as indicated under each bar in FIGS. 8A-8D (units are mM). […] After a brief incubation, unbound active agent was removed by filtration and the particles with adsorbed active agent were redissolved. The amount of active agent and particle recovered was quantitated by HPLC, and expressed as a mass ratio (% loading).
This can be interpreted as evidence that the salt competed with the active agent for interaction with the particle surface. As the salt concentration was increased, it competed strongly and effectively for surface binding sites, and essentially displaced the active agent from the particle surfaces. It is also speculated, that decrease binding of the active agent to microparticle may be attributable to Debye shielding.

[2] = Resuspension of dried active agent-coated FDKP microparticles in acid solution or water (filtration, HPLC); format: physicochemical; conditions: for Resuspended in Acidic solution, integrated HPLC peak area / Resuspended in water, integrated HPLC peak area: filtrate; for Resuspended in Acidic solution, integrated HPLC peak area / Redissolved after filtering away acidic solution, integrated HPLC peak area: final pH about 2.0, 215 nm; for Resuspended in water, integrated HPLC peak area / Redissolved after filtering away water, integrated HPLC peak area: final pH about 4.5, 215 nm; for Redissolved after filtering away acidic solution, integrated HPLC peak area / Redissolved after filtering away water, integrated HPLC peak area: retained particles dissolved; for Active Agent Standard solution, integrated HPLC peak area: 215 nm
Procedure: The solvent was filtered from these suspensions and the retained particles were dissolved and collected. The amount of active agent in all of these samples was quantitated by HPLC.
For each of the lots, the active agent was released from the particles in the acidic solution. Therefore, by protonating the surfaces of the microcrystals, the active agent desorbs from the crystal surfaces.

[3] = Saturation curves for adsorption of active agent onto FDKP microparticles at pH 5.0; format: physicochemical; conditions: pH 5.0, constant 5 mg/mL FDKP microparticles (FIGS. 7A-7D)
Procedure: When the hydration water is displaced by adsorption of the active agent, its structure relaxes and produces a net decrease in the ultrasonic velocity through the sample. […] These studies were conducted at pH 5.0 where optimal adsorption of the active agent to microparticles is observed.

[4] = Ultrasonic glacial acetic acid titration of FDKP particles + insulin; format: physicochemical; conditions: 10 mg/mL FDKP, 1 mg/mL insulin; reduced interaction below about pH 2.9
Procedure: This suspension was introduced into an ultrasonic spectrometer. While stirring gently, glacial acetic acid was gradually added in 5 μL aliquots to lower the pH. At each step in the titration ultrasonic data was collected.
The change in ultrasonic velocity was related (proportional) to the amount of surface area (hydration water) of the particles and/or macromolecules in the sample. […] This additional surface area was from free insulin in the suspension.

[5] = pH dependence of adsorption onto FDKP microparticles with excess protein (retentate mass ratio by HPLC); format: physicochemical; conditions: for type of monolayer formed: 5 mg/mL FDKP, 2 mg/mL protein
Procedure: (An excess of protein, as referred to herein, is that amount over what is believed to be necessary to form a monolayer covering the accessible surface of the FDKP microparticle). After incubation, non-adsorbed protein was removed by filtration. The solids retained on the filter (retentate) were dissolved and the amounts of FDKP microparticles and protein retained on the filter were quantitated by HPLC. The protein/particle mass ratio was determined from this quantitation.
Insulin was adsorbed (loaded) onto FDKP microparticles in a pH-controlled process by mixing an aqueous suspension of FDKP microparticles with an aqueous solution of insulin. […] The solid particles with adsorbed insulin were recovered from the filter (retentate), dissolved and collected. The amounts of insulin and dissolved FDKP microparticles were quantitated by HPLC. The amount of adsorbed insulin was calculated as a fraction of the total mass of retentate.

[6] = Insulin binding to FDKP particles at different pH (unbound insulin in supernatant by HPLC); format: physicochemical
[7] = at the concentrations used; cited from earlier work

Substance	effect of increasing ionic strength on adsorption [1]	Resuspended in Acidic solution, integrated HPLC peak area [2] [mAU * sec]	Resuspended in water, integrated HPLC peak area [2] [mAU * sec]	Redissolved after filtering away acidic solution, integrated HPLC peak area [2] [mAU * sec]	Redissolved after filtering away water, integrated HPLC peak area [2] [mAU * sec]	Active Agent Standard solution, integrated HPLC peak area [2] [mAU * sec]	adsorption as active agent concentration is increased [3]	further results
ghrelin: ghrelin, active agent adsorbed onto FDKP microparticles (GSSFLSPEHQRVQQRKESKKPPAKLQPR; ends and bridges not checked; UniProt Q9UBU3 24-51, looked up)	reduced the extent of adsorption							
Insulin Aspart: a fast-acting type of insulin		893	0	29	982	1099		
PTH: parathyroid hormone	reduced the extent of adsorption						reached saturation	
insulin: protein active agent adsorbed onto FDKP microparticles		980	4	49	936	1103		pH of association of protein with FDKP microparticles [4]: greater than 2.9; pH dependence of adsorption ([5]; 5 mg/mL FDKP particles at varying pH, excess active agent (FIGS. 4A-D)): increased as a function of pH; type of monolayer formed ([5]; pH 3.5 through pH 4.5): non-continuous monolayers; type of monolayer formed ([5]; pH 5.0): continuous monolayer; pH at which substantially complete binding is achieved ([6]; insulin on FDKP particles): ≥ 4.2; insulin adsorbed from solution onto the particles ([6]; pH 3.6): approximately 75%
GLP-1: glucagon-like peptide 1							reached saturation	self association [7]: does not self associate

Source: patent publication US11013692B2, “Method of drug formulation based on increasing the affinity of crystalline microparticle surfaces for active agents” (MannKind Corporation, priority 2005, dated 2021)
